Laboratory results published in US20170052184A1 (published 2017).

How the values were obtained:
HCV Core1-169 [1] = target: T1, HCV Core1-169 (hepatitis C virus (HCV-1), UniProt P26664 1-169); test: SPR sandwich, capture mAb C11-7
T1 sequence: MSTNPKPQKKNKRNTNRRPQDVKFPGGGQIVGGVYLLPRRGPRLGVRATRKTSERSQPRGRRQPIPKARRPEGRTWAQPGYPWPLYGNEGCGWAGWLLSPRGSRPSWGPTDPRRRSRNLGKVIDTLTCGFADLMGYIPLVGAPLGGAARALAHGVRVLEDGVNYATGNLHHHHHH

HCV Core1-169 [2] = target: T1, HCV Core1-169; test: SPR sandwich, capture mAb C11-9
[3] = target: T2, HCV Core 134-171-TT Peptide (hepatitis C virus (HCV-1 numbering) …); test: SPR, captured mAb, peptide analyte
T2 construct: also called ALRZ-9 peptide

HCV Core1-169 [4] = target: T1, HCV Core1-169; test: SPR sandwich, capture mAb C11-14
HCV Core1-169 [5] = target: T1, HCV Core1-169; test: SPR sandwich, capture mAb C11-3

| Binder | expected percent binding (HCV Core1-169 [1]) | expected percent binding (HCV Core1-169 [2]) | Kd [3] | koff [3] | kon [3] | expected percent binding (HCV Core1-169 [4]) | expected percent binding (HCV Core1-169 [5]) |
| --- | --- | --- | --- | --- | --- | --- | --- |
| HCV 208A-134 (antibody, V domains shown) VH: QGQMQQSGAELAKPGASVKLSCKTSGFTFSSSYISWLKQKPGQSLEWIAWIYAGTGNTNYNQKFTDKAQLTVDTSSSTAYMQLSSLTTEDSAIYYCAISGTGFTYWGQGTLVTVSA VL: EVLMTQSPLSLPVSLGDQASISCRSSQSLEHTNGNTYLEWFLQRPGQPPKLLIYKVSSRFSGVPDRFSGSGSGTDFTLKISRVEAEDLGVYYCFQGSHVPFTFGSGTKLAIKR | ≤ 1% | ≤ 1% | 2.1 nM | 3.8e-05 s⁻¹ | 18000 M⁻¹ s⁻¹ | ≤ 1% | ≤ 1% |
| HCV 208A-352 (antibody, V domains shown) VH: QGQMQQSGAELVKPGASVKLSCKTSGFTFSSSFISWLKQKPGQSLEWIAWIYAGTGNTNYNQKFTDKAQLTVDTSSSTAYMQFSSLTTEDSAIYYCAISGTGFTYWGQGTLVTVSA VL: DVLMAQTPLSLPVTLGDQASISCRSSQSLVHSNGNTYLEWFLQKPGQSPKLLIYNVSNRFSGVPDRFSGSGSGTDFTLKISRVEAEDLGVYYCFQGSHVPLTFGSGTKLEIKR | ≤ 1% | ≤ 1% | 0.52 nM | 5.4e-05 s⁻¹ | 100000 M⁻¹ s⁻¹ | ≤ 1% | ≤ 1% |
| HCV 208A-557 (antibody, V domains shown) VH: QGQMQQSGAELVKPGASVKLSCKTSGFTFSSSYISWLKQKPGQSLEWIAWIYAGTGNTNYNQKFTDKAQLTVDTSSSTAYMQLSSLTTEDSAIYYCAISGTGFTYWGQGTLVTVSA VL: DIALTQSPASLAVSLGQRATISCRASQSVSTSRYSYMHWYQQKPGQPPELLIKYASNLESGVPARFSGSGSGTDFTLNIHPVGEEDTATYYCQHSWDFPFTFGSGTKLEIKR | 21.4% | 13.3% | 0.091 nM | 0.00021 s⁻¹ | 2.4e+06 M⁻¹ s⁻¹ | 17.6% | 17.7% |
| HCV 208B-281 (antibody, V domains shown) VH: QGQLQQSGAELVKPGASVKLSCKTSGFTFSSSYISWLKQRPGQSLEWIAWIYAGTGGTNYNQKFTDKAQLTVDTSSSTAYMQFSSLTTEDSAIYYCAISGTGFIYWGQGTLVTVSA VL: DVLMTQTPLSLPVSLGDQASISCRSSQSLVHNNGNTYLEWFLQKPGQSPKLLIYKVSNRFSGVPDRFSGSGSGTDFTLKISRVEAEDLGVYYCFQGSHVPFTFGSGTKLEIKR | ≤ 1% | ≤ 1% | 96 nM | 0.00025 s⁻¹ | 2200 M⁻¹ s⁻¹ | ≤ 1% | ≤ 1% |
| HCV 208B-560 (antibody, V domains shown) VH: EVQLQQSGPELEKPGASVKISCKTSGYTFTEYAMHWVKQSHGMSLEWIGGINPSNGNAIYNQIFKDKATLTVDRSSSTAYMGLRSLTFGDSGVYFCVRRQLDFFDYWGQGASLTVSS VL: DIVVTQSPASLAVSLGQRATISCRASQSVSTSRYSYLHWYQQKPGQPPKLLIKYASNLESGVPARFSGSGSGTDFTLNIHPVGEEDTATYYCQHSWEFPFTFGSGTKLEIKR | 15.5% | 8.3% | 0.23 nM | 0.00026 s⁻¹ | 1.1e+06 M⁻¹ s⁻¹ | 12% | 10.6% |
| HCV 208A-830 (antibody, V domains shown) VH: EVRLQQPGPEVEKPGASVKISCKTSGYTFTEYAIHWVKQSHGESLEWIGGINPSNGDPIYNQIFKDKATLTVDRSSNTAYMGLRSLTVGDSGVYFCVRRQLDYFDFWGQGASLTVSS VL: DIVLTQSPASLAVSLGQRATISCRSSQSVSTSRYSYLHWYQQKPGQPPKLLIKYASNLESGVPARFSGSGSGTDFTLNIHPVGEEDPATYYCQHSWEFPFTFGSGTKLEIKR | 14.7% | 7.9% | 0.16 nM | 0.00054 s⁻¹ | 3.4e+06 M⁻¹ s⁻¹ | 11.7% | 11.9% |
| HCV 208A-605 (antibody, V domains shown) VH: EVQLQQSGPELEKPGASVKISCKTSGYTFTEYAIHWVKQSHGMSLEWIGGINPSNGNAIYNQIFKDKATLTVDRSSSTAYMGLRSLTFGDSGVYFCVRRQLDFFDYWGQGASLTVSS VL: DIVVTQSPASLAVSLGQRATISCRASQSVSTSRYSYLHWYQQKPGQPPKLLIKYASNLESGVPARFSGSGSGTDFTLNIHPVGEEDTATYYCQHSWEFPFTFGSGTKLEIKR | 19.3% | 11.9% | 0.43 nM | 0.00037 s⁻¹ | 870000 M⁻¹ s⁻¹ | 15.8% | 15.9% |
| HCV 208A-222 (antibody, V domains shown) VH: EVQLQQSGPELEKPGASVRISCKTSGYTFTEYAMHWVKQSHGKSLEWIGGINPNNGNAIYNQIFKDKATLTVDRSSSTAYMGLRSLTFGDSGVYFCVRRQLDYFDYWGQGASLTVSS VL: DIVVTQSPASLAVSLGQRATISCRASQSVSTSRYSYLHWYQQKPGQPPKLLIKYASNLESGVPARFSGSGSGTDFTLNIHPVGEEDTATYYCQHSWEFPFTFGSGTKLEIKR | 18.8% | 10.7% | 0.31 nM | 0.00035 s⁻¹ | 1.1e+06 M⁻¹ s⁻¹ | 15% | 15.6% |
| HCV 208A-877 (antibody, V domains shown) VH: QLQQSGPELVKPGASVKISCKTSGYTFTENAMHWVKQSRGKSLEWIGGVNPNNGDTVYTQKFKGKATLTVAKSSSTAYMELRTMTCEESTVYYCASREPDFFDYWGQGSSVTVSS VL: QIVLTQSPAIMSVSPGEKVSMTCSASSSVTYMHWYQQKSGTSPKRWIYDTSELASGVPARFSGSGSGTTYSLTISSMEAEDAATYYCQQWSNKPLTFGAGTKLELKR | 12.1% | 5.9% | 2.2 nM | 0.0024 s⁻¹ | 1.1e+06 M⁻¹ s⁻¹ | 10.7% | 9.4% |
| HCV 208B-189 (antibody, V domains shown) VH: QVHLQQSGAELAKPGASVQMSCKASGYTFTANKMHWARQRPRQGLEWIGYIDPASGYTEYNQKIKDRATLTADKSSSTAYMQLSSLTSEDSAVYYCTNFAYWGQGTLVTVST VL: not shown | 2.9% | ≤ 1% | 0.17 nM | 0.00015 s⁻¹ | 880000 M⁻¹ s⁻¹ | 2.7% | 2.3% |
| HCV 208B-1024 (antibody, V domains shown) VH: EVQLVESGGDLVKPGGSLKLSCAASGFTFSNYGMSWVRQTPDKRLEWVATISSGGSYSYYPDSVKGRFTISRDNAKNILYLQMSSLKSEDTAMYYCASLYYGYGDYWGQGTAFTVSS VL: DVLMTQTPLSLPVSLGDQASISCRSSQSIVHSNGNTYLEWYLQKLGQSPKLLIYRVSNRFSGVPDRFSGSGSGTDFTLKISRVEAEDLGVYYCFQGSHVPWTFGGGTKLEIKR | 14.3% | 7.1% | 15 nM | 0.014 s⁻¹ | 1e+06 M⁻¹ s⁻¹ | 12.2% | 10.9% |
| HCV 208A-207 (antibody, V domains shown) VH: QGQLQQPGAEFVKPGASLKLSCRASGYTFTSYWIHWVKQRPGQGLEWIGEIDPSDSYINQNQKFRGKATLTVDKSSSTAYMELSGLTSEDSAVYYCARHYYGVLDSWGQGTTLTVSS VL: DIVLTQSPATLSVTPGDRVSLSCRASQRIYNYLHWYQQKSHESPRLLTKYASQSISGIPSRFSGSGSGTDFILTINSVETEDFGMYFCQQSNSWPLTFGAGTKLELRR | ≤ 1% | ≤ 1% | < 0.032 nM | < 1e-05 s⁻¹ | 310000 M⁻¹ s⁻¹ | ≤ 1% | ≤ 1% |
| HCV 208A-638 (antibody, V domains shown) VH: QGQLQQPGAEFVKPGASLKLSCRASGYTFTSYWIHWVKQRPGQGLEWIGEVDPSDSYINQNEKFRGKATLTVDKSSSTAYMQLGSLTSEDSAVYYCARHYYGVLDSWGQGTALTVSS VL: QIVLTQSPTIMSASLGERVTMTCTASSSVSSSYLHWFQQKPGSSPKLWIYSTSNLASGVPPRFSGSGSGTSYSLSISSVEAEDVATYYCLQFHRSPWTFGGGAKLEIKR | 16.9% | 9.2% | 0.2 nM | 0.00053 s⁻¹ | 2.7e+06 M⁻¹ s⁻¹ | 13.3% | 14.1% |
| HCV 208B-1096 (antibody, V domains shown) VH: QVQLQQSGAGLAKPGASVKMSCKASGYTFTANKMHWAKQRPGQGLEWIGYIDPSSGYTEYNHKIQYKATLTADTSSSTAYMQLSTLTFEDSAVYYCTNFAYWGQGTLVTVSA VL: DIVMTQTPLTLSVTIGQPASISCKSSQSLLFTNGKTYLNWFLQRPGQSPKRLIYLLSKLDSGVPDRFSGSGSGTDFTLKISRVEAEDLGVYYCLQSTYFPLTFGAGTKLELKR | 16.9% | 11.4% | 0.46 nM | 0.0006 s⁻¹ | 1.3e+06 M⁻¹ s⁻¹ | 16.3% | 15.1% |
| HCV 208B-589 (antibody, V domains shown) VH: QVQLQQSGAGLAKPGASVKMSCKASGYTFTANKMHWAKQRPGQGLEWIGYIDPSSGYTEYNHKIQDKATLTADTSSSTAYMQLSSLTFEDSAVYYCTNFAYWGQGTLVTVSA VL: DIVMTQTPLTLSVTIGQPASISCKSSQSLLFTNGKTYLNWFLQRPGQSPKRLIYLLSKLDSGVPDRFSGSGSGTDFTLKISRVEAEDLGVYYCLQSTYFPLTFGAGTKLELKR | 11.7% | 6.7% | 0.63 nM | 0.00061 s⁻¹ | 960000 M⁻¹ s⁻¹ | 9.9% | 9.4% |
